How the values were obtained:
Experiment in all cases: MST
[1] = molecular target: R663H human β-cardiac sS1 (human) (UniProt P12883)
[2] = molecular target: WT human β-cardiac sS1 (short S1) (human) (UniProt P12883)
[3] = molecular target: R663H human β-cardiac 25-hep HMM (UniProt P12883)

Row | Kd [1] [µM] | Kd [2] [µM] | Kd [3] [µM] | Substance
1 | 50 | 67 |  | proximal S2 of human β-cardiac myosin (from UniProt P12883 1-1935) (domain or fragment)
2 |  |  | 0.9 | C0-C7 fragment of myosin binding protein-C (MyBP-C) (domain or fragment)

Source: article doi:10.1101/543413
